What was measured:
Assay in all cases: Michaelis-Menten chlorination assay, HPLC, Fre-coupled
Assay type in all cases: biochemical, Pseudomonas fluorescens
Conditions in all cases: Fre in excess, 30 °C
[1] = substrate: NC(=O)c1ccccc1N
Text: (§1) Michaelis-Menten chlorination assay, HPLC, Fre-coupled on PrnA

[2] = substrate: N[C@@H](Cc1c[nH]c2ccccc12)C(=O)O
Text: as §1

[3] = substrate: Nc1ccccc1C(=O)C[C@H](N)C(=O)O
Text: as §1

[4] = substrate: Nc1ccccc1C(=O)O
Text: as §1

B1: PrnA (Pseudomonas fluorescens) (protein)
chain: MNKPIKNIVIVGGGTAGWMAASYLVRALQQQANITLIESAAIPRIGVGEATIPSLQKVFFDFLGIPEREWMPQVNGAFKAAIKFVNWRKSPDPSRDDHFYHLFGNVPNCDGVPLTHYWLRKREQGFQQPMEYACYPQPGALDGKLAPCLSDGTRQMSHAWHFDAHLVADFLKRWAVERGVNRVVDEVVDVRLNNRGYISNLLTKEGRTLEADLFIDCSGMRGLLINQALKEPFIDMSDYLLCDSAVASAVPNDDARDGVEPYTSSIAMNSGWTWKIPMLGRFGSGYVFSSHFTSRDQATADFLKLWGLSDNQPLNQIKFRVGRNKRAWVNNCVSIGLSSCFLEPLESTGIYFIYAALYQLVKHFPDTSFDPRLSDAFNAEIVHMFDDCRDFVQAHYFTTSRDDTPFWLANRHDLRLSDAIKEKVQRYKAGLPLTTTSFDDSTYYETFDYEFKNFWLNGNYYCIFAGLGMLPDRSLPLLQHRPESIEKAEAMFASIRREAERLRTSLPTNYDYLRSLRDGDAGLSRGQRGPKLAAQESL
notes: full-length, pET28a (NdeI/NotI), expressed in E. coli Arctic Express, HisTrap purified
Km [1]: 3267 ± 491 µM
kcat [1]: 0.035 ± 0.00167 s⁻¹
kcat/Km [1]: 11.7 ± 1.67 M⁻¹ s⁻¹
Km [2]: 0.7 ± 0.1 µM
kcat [2]: 0.0183 ± 0.000833 s⁻¹
kcat/Km [2]: 28300 ± 3330 M⁻¹ s⁻¹
Km [3]: 19.0 ± 2.2 µM
kcat [3]: 0.0617 ± 0.00167 s⁻¹
kcat/Km [3]: 3330 ± 167 M⁻¹ s⁻¹
Km [4]: 3161 ± 986 µM
kcat [4]: 0.0085 ± 0.00117 s⁻¹
kcat/Km [4]: 2.67 ± 0.833 M⁻¹ s⁻¹

From paper PMC5659210, “Extending the biocatalytic scope of regiocomplementary flavin-dependent halogenase enzymes” (Chemical Science, 2015)
